Laboratory results as given in article PMC3384344 (Nucleic Acids Research, 2012).
Substitutions are numbered along the chain they refer to. In names and notes the source's numbering stands. Read-outs that look alike come from different tables or passages of the source.

B1: UmuD, wild-type full-length (homodimer UmuD2) (natural protein)
chain: MLFIKPADLREIVTFPLFSDLVQCGFPSPAADYVEQRIDLNQLLIQHPSATYFVKASGDSMIDGGISDGDLLIVDSAITASHGDIVIAAVDGEFTVKKLQLRPTVQLIPMNSAYSPITISSEDTLDVFGVVIHVVKAMR
B2: UmuD3A (UmuD containing the triple mutation T14A, L17A and F18A) (natural protein)
chain: B1 chain with T14A, L17A, F18A
B3: UmuD-S60A, non-cleavable full-length UmuD variant (natural protein)
chain: B1 chain with S60A
B4: UmuD′, cleaved form of UmuD (homodimer UmuD′2) (natural protein)
chain: GFPSPAADYVEQRIDLNQLLIQHPSATYFVKASGDSMIDGGISDGDLLIVDSAITASHGDIVIAAVDGEFTVKKLQLRPTVQLIPMNSAYSPITISSEDTLDVFGVVIHVVKAMR

Experiments:
[1] = molecular target: DNA polymerase III α subunit, wild-type full-length (E. coli) (UniProt P10443); test: other fluorescence titration
DNA polymerase III α subunit, wild-type full-length (E. coli), sequence (P10443 whole entry, the tested form may be a part): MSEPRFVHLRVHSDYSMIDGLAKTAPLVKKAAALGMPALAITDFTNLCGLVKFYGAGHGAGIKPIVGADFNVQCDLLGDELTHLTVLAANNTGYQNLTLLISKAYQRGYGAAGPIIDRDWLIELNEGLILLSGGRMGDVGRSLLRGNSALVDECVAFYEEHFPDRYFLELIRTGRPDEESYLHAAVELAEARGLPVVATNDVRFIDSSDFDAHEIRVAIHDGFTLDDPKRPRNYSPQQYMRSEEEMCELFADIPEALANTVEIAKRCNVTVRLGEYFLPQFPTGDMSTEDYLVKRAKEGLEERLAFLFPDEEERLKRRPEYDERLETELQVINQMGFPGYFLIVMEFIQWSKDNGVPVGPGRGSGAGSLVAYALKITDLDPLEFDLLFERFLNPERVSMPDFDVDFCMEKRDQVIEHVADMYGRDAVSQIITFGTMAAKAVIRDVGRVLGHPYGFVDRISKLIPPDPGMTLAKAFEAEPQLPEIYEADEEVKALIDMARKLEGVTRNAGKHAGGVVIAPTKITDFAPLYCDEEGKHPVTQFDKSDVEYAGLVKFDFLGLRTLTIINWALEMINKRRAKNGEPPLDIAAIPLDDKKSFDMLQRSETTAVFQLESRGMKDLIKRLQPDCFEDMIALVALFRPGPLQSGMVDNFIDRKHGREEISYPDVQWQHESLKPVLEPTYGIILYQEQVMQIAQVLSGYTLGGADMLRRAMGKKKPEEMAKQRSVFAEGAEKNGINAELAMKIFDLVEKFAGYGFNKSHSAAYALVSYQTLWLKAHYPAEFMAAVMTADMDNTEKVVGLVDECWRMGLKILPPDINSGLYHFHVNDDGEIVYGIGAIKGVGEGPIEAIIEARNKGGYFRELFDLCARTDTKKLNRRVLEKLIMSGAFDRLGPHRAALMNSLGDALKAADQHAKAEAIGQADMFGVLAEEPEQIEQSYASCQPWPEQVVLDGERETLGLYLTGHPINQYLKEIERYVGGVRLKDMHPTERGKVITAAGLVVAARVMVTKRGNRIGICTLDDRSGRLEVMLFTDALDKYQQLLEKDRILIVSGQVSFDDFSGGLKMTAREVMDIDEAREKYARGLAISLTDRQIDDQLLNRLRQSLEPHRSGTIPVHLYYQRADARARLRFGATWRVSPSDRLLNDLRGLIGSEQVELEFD

[2] = molecular target: T1, DNA polymerase III α subunit truncation α1–280 (E. coli, UniProt P10443 1-280); test: cell-based or functional assay
T1 sequence (P10443 1-280): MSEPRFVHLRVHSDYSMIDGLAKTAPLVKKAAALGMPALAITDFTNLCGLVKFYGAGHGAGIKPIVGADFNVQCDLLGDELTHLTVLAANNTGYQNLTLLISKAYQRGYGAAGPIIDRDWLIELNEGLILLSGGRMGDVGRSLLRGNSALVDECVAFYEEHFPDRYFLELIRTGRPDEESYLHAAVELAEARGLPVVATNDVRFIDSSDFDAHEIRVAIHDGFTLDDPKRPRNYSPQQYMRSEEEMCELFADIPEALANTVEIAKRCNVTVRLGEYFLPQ

[3] = molecular target: DNA polymerase III α subunit truncation α1–975 (E. coli, UniProt P10443 1-975); test: other fluorescence titration
DNA polymerase III α subunit truncation α1–975, sequence (P10443 1-975): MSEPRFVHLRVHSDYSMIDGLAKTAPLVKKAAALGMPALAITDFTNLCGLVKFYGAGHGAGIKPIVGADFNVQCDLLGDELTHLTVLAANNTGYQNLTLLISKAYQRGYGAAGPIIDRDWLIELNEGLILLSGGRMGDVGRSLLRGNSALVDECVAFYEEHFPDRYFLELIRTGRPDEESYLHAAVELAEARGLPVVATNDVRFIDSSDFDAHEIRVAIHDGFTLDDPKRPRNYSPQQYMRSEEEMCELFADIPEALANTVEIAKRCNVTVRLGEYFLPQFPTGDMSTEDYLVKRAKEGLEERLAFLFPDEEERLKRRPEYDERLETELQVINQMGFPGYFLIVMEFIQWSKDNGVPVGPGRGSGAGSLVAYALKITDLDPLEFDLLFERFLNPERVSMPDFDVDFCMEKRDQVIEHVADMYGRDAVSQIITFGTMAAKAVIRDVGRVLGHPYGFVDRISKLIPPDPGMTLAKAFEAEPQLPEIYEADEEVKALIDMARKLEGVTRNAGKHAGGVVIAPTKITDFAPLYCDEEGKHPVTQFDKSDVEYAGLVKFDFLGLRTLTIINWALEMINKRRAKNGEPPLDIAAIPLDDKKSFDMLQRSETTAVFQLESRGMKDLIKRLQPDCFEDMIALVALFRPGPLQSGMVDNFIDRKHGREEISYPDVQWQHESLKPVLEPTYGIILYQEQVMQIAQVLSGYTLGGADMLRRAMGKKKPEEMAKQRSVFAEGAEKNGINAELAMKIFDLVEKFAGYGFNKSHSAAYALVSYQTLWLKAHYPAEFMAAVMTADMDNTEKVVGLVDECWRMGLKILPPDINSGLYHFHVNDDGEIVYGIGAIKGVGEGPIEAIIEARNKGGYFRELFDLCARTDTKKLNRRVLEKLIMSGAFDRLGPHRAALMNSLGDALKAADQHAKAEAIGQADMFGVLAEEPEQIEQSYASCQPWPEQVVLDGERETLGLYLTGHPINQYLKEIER

[4] = molecular target: DNA polymerase III α subunit truncation α1–956 (E. coli, UniProt P10443 1-956); test: other fluorescence titration
DNA polymerase III α subunit truncation α1–956, sequence (P10443 1-956): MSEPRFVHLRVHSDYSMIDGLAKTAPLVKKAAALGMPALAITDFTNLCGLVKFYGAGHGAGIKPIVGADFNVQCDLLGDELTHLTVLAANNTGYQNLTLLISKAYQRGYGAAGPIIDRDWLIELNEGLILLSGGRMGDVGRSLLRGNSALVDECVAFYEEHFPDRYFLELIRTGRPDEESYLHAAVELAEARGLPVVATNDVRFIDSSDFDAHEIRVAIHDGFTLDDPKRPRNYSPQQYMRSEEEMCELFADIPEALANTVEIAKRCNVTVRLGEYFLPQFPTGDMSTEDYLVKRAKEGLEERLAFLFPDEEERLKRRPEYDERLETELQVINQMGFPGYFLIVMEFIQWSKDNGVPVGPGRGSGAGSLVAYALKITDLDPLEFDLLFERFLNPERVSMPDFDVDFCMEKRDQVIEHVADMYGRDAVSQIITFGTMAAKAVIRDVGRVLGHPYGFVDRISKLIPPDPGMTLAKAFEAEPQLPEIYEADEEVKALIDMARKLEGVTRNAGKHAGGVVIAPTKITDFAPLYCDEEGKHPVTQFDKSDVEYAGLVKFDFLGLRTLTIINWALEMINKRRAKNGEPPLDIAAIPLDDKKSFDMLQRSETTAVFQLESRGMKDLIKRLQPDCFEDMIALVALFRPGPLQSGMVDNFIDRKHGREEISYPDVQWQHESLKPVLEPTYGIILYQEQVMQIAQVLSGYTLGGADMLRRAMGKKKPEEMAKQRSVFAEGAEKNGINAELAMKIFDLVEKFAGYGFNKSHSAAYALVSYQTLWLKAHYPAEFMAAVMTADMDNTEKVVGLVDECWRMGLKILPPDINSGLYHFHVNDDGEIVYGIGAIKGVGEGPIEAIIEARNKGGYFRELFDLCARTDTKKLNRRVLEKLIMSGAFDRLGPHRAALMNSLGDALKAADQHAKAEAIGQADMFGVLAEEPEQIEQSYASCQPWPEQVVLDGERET

[5] = molecular target: T2, DNA polymerase III α subunit, wild-type full-length (E. coli, UniProt P10443 1-1160); test: other fluorescence titration
T2 sequence (P10443 whole entry, the tested form may be a part): as the sequence (P10443 whole entry, the tested form may be a part) above

[6] = molecular target: T1, DNA polymerase III α subunit truncation …; test: other fluorescence titration
[7] = molecular target: DNA polymerase III α subunit truncation α917–1160 (E. coli, UniProt P10443 917-1160); test: other fluorescence titration
DNA polymerase III α subunit truncation α917–1160, sequence (P10443 917-1160): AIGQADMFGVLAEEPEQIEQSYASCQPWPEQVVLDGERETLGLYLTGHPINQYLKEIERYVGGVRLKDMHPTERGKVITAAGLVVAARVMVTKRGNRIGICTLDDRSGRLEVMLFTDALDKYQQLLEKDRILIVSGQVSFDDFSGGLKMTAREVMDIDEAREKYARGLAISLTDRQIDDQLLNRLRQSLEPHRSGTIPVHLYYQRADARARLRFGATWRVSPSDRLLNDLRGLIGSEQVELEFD

[8] = molecular target: T2, DNA polymerase III α subunit, wild-type …; test: other fluorescence titration; remark: listed apart in the source
[9] = molecular target: the molecule itself; test: cross-linking

Row | Molecule | Kd [1] [µM] | RecA/ssDNA-facilitated UmuD cleavage at 30°C with 0–40 µM α1–280 [2] | Kd [3] [µM] | Kd [4] [µM] | Kd [5] [µM] | Kd [6] [µM] | Kd [7] [µM] | Kd [8] [µM] | binding result [9]
1 | 1:1 mixture of UmuD-S60A and UmuD′-S60A (from UniProt P0AG11) (complex) | 4.6 |  |  |  |  |  |  |  | 
2 | B1 |  | ~4 fold more α1–280 than wild-type α | 3.1 ± 1 | 14.7 ± 1.9 | 1.1 ± 0.6 | 7.3 ± 1.4 | 13.9 ± 5.1 | 21.7 ± 11.7 | 
3 | B2 |  |  |  |  | 8.7 ± 1.5 | 9.3 ± 3.2 | 3.4 ± 1 |  | 
4 | B3 |  |  |  |  | 10.6 ± 2.9 | 10.3 ± 4.3 | 0.7 ± 0.3 |  | binds
5 | B4 |  |  |  |  | 10.9 ± 1.6 | 8.6 ± 1 | 3.8 ± 0.9 |  | 
